Measured values as given in US12529083B2, “CYP76AD1-beta clade polynucleotides, polypeptides, and methods for producing betalains” (YEDA RESEARCH AND DEVELOPMENT CO. LTD., priority 2015, dated 2026).

Tested on: tyrosine hydroxylation to L-DOPA
Assay: Transient expression in N. benthamiana leaves, LC-MS detection of L-DOPA
Type: in vivo, Nicotiana benthamiana
Conditions: vector or gene infiltrated without BvDODA1, LC-MS
Experimental: In all cases, agrobacteria were grown overnight in LB media and brought to a final O.D.600 0.2 in infiltration buffer. When co-infiltrated, agrobacteria carrying separate constructs were each brought to O.D.600 0.2 and mixed in a 1:1 ratio before infiltration. Tissues used for subsequent LC-MS analysis were sampled from leaves 7 days post infiltration. For LC-MS analysis of L-DOPA and betalains, 3-4 biological replicates for each experiment were sampled, each consisting of infiltrated tissues from 2-3 different leaves. For L-DOPA analysis, samples were extracted as described above and analyzed using a UPLC/PDA-MSMS instrument, where a UPLC separation module (Waters Acquity) was connected to a photodiode array detector (Waters Acquity 2996, 190-800 nm), and (on-line) to a triple quadrupole MS detector (Waters Xevo TQ MS), equipped with an ESI source. […] Samples were analyzed in positive ionization mode, using the following settings: capillary—2 kV, cone—26 eV, with two transitions 198.1>152.1 (collision—15 eV) and 198.1>181.1 (collision—10 eV) used for compound assignment. […]

B1: CYP76AD15: Mirabilis jalapa cytochrome P450, functional ortholog of CYP76AD6, catalyzing formation of L-DOPA from tyrosine (SEQ ID NO: 44) (protein, listed as Mirabilis jalapa)
chain: MENTMLGVILATIFLTFHIMKMLFSPSKVKLPPGPRPLPIIGNILELGDKPHRSFANLAKIHGPLVTLKLGSVTTIVVSSSEVAKEMFLKNDQPLANRTIPDSVRAGNHDKLSMSWLPVSPKWRNLRKISAVQLLSTQRLDASQAHRQAKIKQLIEYVKKCSKIGQYVDIGQVAFTTSLNLLSNTFFSKELASFDSDNAQEFKQLMWCIMEEIGRPNYADYFPILGYVDPFGARRRLSRYFDQLIEVFQVIIRERLTHDNNIVGNNNDVLATLLDLYKQNELTMDEINHLLVDIFDAGTDTTASTLEWAMSELIKNPHIMAKAQEEVRRATMSHGGATVAEIQESDINNLPYIQSIIKETLRLHPPTVFLLPRKADVDVQLFGYVVPKNAQVLVNLWAIGRDPNVWPDPEVFSPERFMDCEIDVKGRDFELLPFGAGRRICPGLSLAYRMLNLMLANMVHSFDWKLPGVENGSGSEMDSLDMDEKFGITLQKVQPLKVIPVSRK
For B1, the L-DOPA production was “L-DOPA production when infiltrated alone”.
